The target of the test is PDL1 on the surface of TC-1 cells (UniProt Q9EP73). Nature of the test: flow cytometry, staining of TC-1 tumor cells (background control). On the technique in general: In flow cytometry, cells or beads pass a laser one at a time.
UniProt Q9EP73, sequence (Q9EP73 19-290 limits assumed): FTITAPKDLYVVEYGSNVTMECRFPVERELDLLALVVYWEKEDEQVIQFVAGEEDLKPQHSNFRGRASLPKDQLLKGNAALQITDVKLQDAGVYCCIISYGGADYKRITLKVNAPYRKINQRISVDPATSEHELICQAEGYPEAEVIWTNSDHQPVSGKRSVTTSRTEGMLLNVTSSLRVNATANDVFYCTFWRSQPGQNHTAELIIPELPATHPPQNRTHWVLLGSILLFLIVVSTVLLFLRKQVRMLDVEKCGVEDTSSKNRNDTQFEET

Regarding PE-conjugated isotype control antibody, the median fluorescent intensity (MFI) was 184.
